Measured values taken from PMC4207793.

Molecular target: trimerized sTNFRII-gAD fusion protein (UniProt P20333)
Test: AUC; ultracentrifuge analysis of the purified trimerized sTNFRII-gAD

Substance: trimerized sTNFRII-gAD fusion protein (from UniProt P20333 23-257)
- stoichiometry N: 3
